Protein production data for 18 sequences are collected here from a protein production outcome set (Wang et al. 2014).

A short description of the series: label from the status in PepcDB records.
For “MSHPHPELGRPPALPKGGLRVTPLGGLGEIGRNMTVFEYGGRLLIVDCGVLFPEEEQPGIDLILPDFTSIRDRLDDIEGIVLTHGHEDHIGGVPFLLREKPDIPLIGSKLTLALIEAKLQEHRIRPYTLEVAEGHRERVGPFDCEFVAVNHSIPDALAVAIRTPAGMVVHTGDFKMDQLPLDGRLTDLHAFARLSEEGIDLLLADSTNAEVPGFVPPERDISNVLRQVFANARKRIIVASFASHVHRIQQILDAAHEYGRRVAFVGRSMVRNMGIARDLGYLKVPPGLVVDVKTLDDLPDSEVVLVCTGSQGEPMAALSRMANRDHQIRIVNGDTVILASSLIPGNENAVYRVINGLTRWGANVVHKGNAKVHVSGHASAGELLYFYNICRPKNLMPVHGEWRHLRANAELGALTGVPHDRIVIAEDGVVVDLVEGKAKITGKVQAGYVYVDGLSVGDVGEPALKDRKILGDEGIISVFVVMDSSTGKITGGPHVQARGSGIEDSAFAAVLPKVTEALERSAQDGVVEPHQMQQLIRRTLGKWVSDTYRRRPMILPVVVEV”, the protein production result is listed as “failed”.

Turning to “MYNLLLTILLVLSGLLEIAIFMQPQKNPSSNVFDSSGSEALFERTKARGFEAFMQRFTAVLVFFWLAIALVLAILSSK”, the protein production entry is given as “failed”.

As to “MPRITQEISYNCDYGDNTFNLAIDIGGTLAKVVFSPIHSNRLMFYTIETEKIDKFMELLHSIIKEHNNGCYRMTHIIATGGGAFKFYDLLYENFPQIKGISRFEEMEGLIHGLDFFIHEIPDEVFTYNDQDGERIIPTSSGTMDSKAIYPYLLVNIGSGVSILKVTEPNNFSRVGGSSLGGGTLWGLLSLITGAQTYDQMLDWAQEGDNSSVDMLVGDIYGTDYNKIGLKSSAIASSFGKVFQNRMTSNKSLENNENKLYSSHESIEKNNGQMFKNPDICKSLLFAISNNIGQIAYLQAKINNIQNIYFGGSYTRGHLTTMNTLSYAINFWSQGSKQAFFLKHEGYLGAMGAFLSASRHSSTKKTST”, the protein production entry is listed as “failed”.

Consider “MPFINIKLVPENGGPTNEQKQQLIEGVSDLMVKVLNKNKASIVVIIDEVDSNNYGLGGESVHHLRQKN”, for which the protein production result is “failed”.

As to “SEKPAGSLQEQALKRKERLKALRDRQLQGHAPADGEPERKRALEDTETEDRHRELKLRNYTPEDVELKERQVPKAKPASVDDKVKDQLEAANPEPVIEEVDLANLAPRKPDWDLKRDVAKKLEKLERRTQKAIAELIRERLKGSEEELAGAVGAVGVEEGDSD”, the protein production entry was “failed”.

With “MLTYQVKQGDTLNSIAADFRISTAALLQANPSLQAGLTAGQSIVIPGLPDPYTIPYHIAVSIGAKTLTLSLNNRVMKTYPIAVGKILTQTPTGEFYIINRQRNPGGPFGAYWLSLSKQHYGIHGTNNPASIGKAVSKGCIRMHNKDVIELASIVPNGTRVTINR”, the protein production result is “not failed”.

As for “MAMAVPVSARPQSPAEGFYAINNQFQTNGPKGFSEIKILANEDMFLRMDLPGVPDEGGLSVYHNRSQETVVVFAKAPKVHTHDSTERRYQTMTGIGCSCCAISSITTHMSDGVFRVILSKTRIDPHRSPCTDPALTGPVLQPHPLAFPQPTMAYESKQLPNGKLFVRADMPGVPKENFTVSVTNGRVKVTGQAPAVSHDSSGRFYSGDVAMLSTPVDIPSRRIKTIAKNGVIRLLIPPF”, the protein production result is recorded as “failed”.

In the case of “PYYLFMTMYWHHTSTTPVSTVLITHGYAEHQGRYSALVRSLLNYNFDVVTFDLPGHGYAPGPRACVDVDKLVDFHVALRHRAEQDCRLRTETMCLFGHSMGGLITALSVLEDSSNVSAVALSGPAFSPFPKTPRVVTRMLRCSARIAPRLKVLALPQDAISRDPEVVAAYANDPRNYTGRVPLLTGASMALAGQKALAQASQWDRSVPLLVMHGSADRLADIEGSRNFAASAGGTMRPVDGAFHEIFNEPEAPQLRAELCEWLHANCG”, the protein production result is given as “failed”.

Regarding “LTPLAQMAEGMERQDVSIDKWTLHAKQNLSLTEKEFYQKVQRLKQEYRQYDWVIAREDKMIKAIGTYTDKKNRTSFRLQLVTTLKKHNPTSYLLYEQMSLETPDSWNDTYEQFERETLGIFQEKVVIFTCLNGHLDDNMNIVLQKKANQLLNEFQARSVEHVVEPNFVSISAFTDEWEEYIMTSKHKMNLQIALRSAGMGGKHTVTVGTPIVTTEY”, the protein production entry is on record as “not failed”.

Regarding “MFSPQASAAYDDLHEGYATYTGSGYSGGAFLLDPIPSDMEITAINPADLNYGGVKAALAGSYLEVEGPKGKTTVYVTDLYPEGARGALDLSPNAFRKIGNMKDGKINIKWRVVKAPITGNFTYRIKEGSSRWWAAIQVRNHKYPVMKMEYEKDGKWINMEKMDYNHFVSTNLGTGSLKVRMTDIRGKVVKDTIPKLPESGTSKAYTVPGHVQFPELEHHHHHH”, the protein production result is “not failed”.

On to “MVDSYDDSLDGEKSKTQVKRELHALVDLGERLTTLKADVLAKLPLTDALRKALAEAPKHTANIARKRHILFIGKLMRDQDQEAILVLLDQLDASTRQYNERFHNLERWRDRLIAGDDADLEKFVIEYPDADRQQLRSLIRQAQHEVARNKPPATSRKIFKYIRELDELQRGLR”, for which the protein production entry is given as “not failed”.

In the case of “MEAFGGFVMDEQAIQVENVFLEFLKSFRLDANKPELYYEAEIEAIRGGESTMMYIDFSHVMGFNDALQKAIADEYLRFEPYLRNACKRFVIEMNPSFISDDTPNKDINVSFYNLPFTKRLRELTTAEIGKLVSVTGVVTRTSEVRPELLYGTFKCLDCGSVIKNVEQQFKYTQPTICVSPTCLNRARWALLRQESKFADWQRVRMQETSKEIPAGSLPRSLDVILRHEIVEQARAGDTVIFTGTVVVIPDISALAAPGERAECRRDSSQQKSSTAGHEGVQGLKALGVRDLSYRLAFIANSVQIADGSRNTDMRNRQNDSNEDDQQQFTAEELDEIQQMRNTPDYFNKLVGSMAPTVFGHQDIKRAVLLMLLGGVHKTTHEGINLRGDINVCIVGDPSCAKSQFLKYTAGIVPRSVYTSGKSSSAAGLTATVAKEPETGEFCIEAGALMLADNGICCIDEFDKMDIKDQVAIHEAMEQQTISITKAGIQATLNARTSILAAANPVGGRYDKSKPLKYNVNLPPAILSRFDLVYVMIDDPDEVTDYHIAHHIVRVHQKHEAALSPEFTTVQLKRYIAYAKTLKPKLSPEARKLLVESYVALRRGDTTPGTRVAYRMTVRQLEALIRLSEAIARSHLEILVKPSHVLLAVRLLKTSVISVESGDIDLSEYQDANGDNMDDTDDIENPVDGEEDQQNGAAEPASATADNGAAAQKLVISEEEYDRITQALVIRLRQHEETVNKDSSELPGIRQKELIRWFIDQQNEKKKYSSQEQVKLDIKKLRAIIESLVCKEGHLIVLANEQEEAAEAEETKKKSSQRDERILAVAPNYVIE”, the protein production result was “failed”.

Turning to “MNLELLTLAVGAYAAVLAFLGWLGYRRTRSAADYLVGGREIHPVLMALAYGSTFISTSAIVGFAGVAALMGMGLLWLTMLNILLGVFVAFVVFGRPTRRLGAALDAHTFPELLGRRYRSRFIQGFAGGTIALLMPLYAAAVLIGGARFLEVQLRLDYHMALFVFAAITVGYVLFGGLKGVVYTDAFQAVLMVCGMLVLLVATYAQVGGLSAHQALTDLADQVPPALRAQGHRGWTAMPAAGSPLWWQMVSTIVLGVGIGVLAQPQLTVRFMTVKSGRELHRALVPGGLFLLLMAGVAYVVGSLTNLWYFQRTGKIALAIMTDPATGKPNVDRLMPLYTQAAMPEWFAYLFMLALLAAAMSTLSAQFHAIGTAIGRDLYEQAFRLGGGAERTVLLARAGILAGFAGTVLLAWNLGPGVIAIATALFFGMCAATFLPAFVSALFWARSTRAGVIAGMLAGFGAWALWVLFVHERESAALGVVKALTGRTSLGAGTTWALVDPIVVALPIAALVTVVGSLAGRAAPGAETGGPARTREGGLDAGLR”, the protein production result is reported as “failed”.

Take “MSALPSYTQNGQTITFAFAQPLQLTIVTPEIIRVFINRGEQGESYAIEGHKIQATDFTIESAGDHYIIRTSALTIHLDSERHLDTFDKDGNALITLEHHHHHH”: the protein production result was “not failed”.

In the case of “MERAVVQRARPLARRPLVTLLTAAALAASGLTALTSAARAADADLARNGGFESALDGWTCTAGTTVTSPVHGGTSALKATPAGADNARCSQTVSVKPDSPYTLSGYVRGTYVYLGASGTGTTDVSTWAQSAPDWQQLTTTFRTGPSTTRVTIYTHGWYGTGAYHADDISLTGPGGETQQPPAVPGGLKTGSVTSSAVALSWSPVPGATGYAVYRDGAKVSTVTGTSTTVTGLTPSTAYSFQVTAVNDAGESARSATVTATTAQRPDDGGGSSDLPAHALVGYLHASFANGSGYTRMADVPDSWDVIDLAFGEPTSVTSGDIRFERCPVAECPNVESDAEFKAAIKAKQAAGKKVLISIGGQNGQVQLTSTAARDKFVSSVSAIIDEYGLDGLDIDFEGHSLSLNADDTDFKNPKTPVIVNLVSAVKTLKAKYGDGFVLTMAPETFFVQLGYQYYGTGKWGGQDPRAGAYLPVIHALRDDLTLLHVQDYNSGSIMGLDNQYHSMGGADFHIAMTDMLLTGFPVAGDANNVFPPLRPDQVAIGMPASTQAGNGHVSPAEVTKALNCLTKKTDCGSYATHGTWPDLRGLMTWSINWDRYSNWEFQKNFDAYFG”, the protein production result was “failed”.

Regarding “MGIKEKEIELETLKREIAQAEASLEQDFIKYMVDKTNEKVEDLFFSNKPEFYRFVFTEQNNYLREKLTDKVGRAMDLSDEIQRDKTENESLENGTKFKKRFVFELQNDLIFLRTKRNTYSAKTEHENFQERLLAAKDTFRLIKANDFKTKIYPYQITLRLKTKHIIVFRWLKKEIIKRFVKKDLFTETLSIKITDKKGQKYALIANYNHASDIIELMLDDKTYTTTLYYQKPLFDLIKNSNFNLTIKDNTLEINQAKKRLFV”, the protein production entry is recorded as “failed”.

With “MMPPPAVPPQLPEVPAADLPRVRAPLSTYRRPQRTDFVTPTGGPFFAKQDKALNTIDLKMAHDLKLRGYRVKVAVVDEGVRSDHPLLNVEKKYGGDYMADGTRTYPDPKRQGRHGTSVALVLAGQDTDTYRGGVAPNADLYSANIGTRAGHVSDEAAFHAWNDLLGHGIKIFNNSFATEGPEGEQRVKEDRNEYHSAANKQNTYIGRLDRLVRDGALLIFAAGNGRPSGRAYSEVGSVGRTPRVEPHLQRGLIVVTAVDENGRLETWANRCGQAQQWCLAAPSTAYLPGLDKDNPDSIHVEQGTSLSAPLVTGAAVLVQDRFRWMDNDNLRTTLLTTAQDKGPYGVDPQYGWGVLDVGRAVQGPAQFAFGDFVARVTDTSTFGNDISGAGGLVVDGPGALVLAGSNTYAGRTTIKRGTLDVFGSVTSAVTVEPGGTLTGIGTVGTVTNQGTVVNKEAGLHVKGDYSQTAQGLLVTDIGSLLDVSGRASLAGRLHVDDIRPGYVGGDGKSVPVIKAGAVSGVFATLTRSPGLLLNARLDYRPQAVYLTMRRAERVHAAAQRGADDGRRASVLAVAERLDAAMRELDALPESQRDAAAPAAAIGRIQRVQSRKVLQDNLYSLAGATYANAAAVNTLEQNRWMDRLENHLAQAGGERVAAIAEYRHGQLRWRPDGLQGRQRGNGIMLGLAREVSAGLSLAAALTHSRTHWDESSGAPARDNAAMTTPGVLLGARRAWEDGWFVQGALGYSRYRNQATRHISLGDAGHTVGATARGHVWQADAGLGRQWTLAPGHTLAPRAGLQLTHLRQQGFSESGAQGLGLRAHALTRTVPTLWAQLQSRHAFMLGATPMTAQLQLGVWHDLRARRYAASGGFAGLAQDQGASGYWPVPRTRVQGALGLRAEFAPGLVLGLGYTGQLATHWVDHQLSASLTYRY”, the protein production result is given as “failed”.

With “ETPVGLNLELTDQDGRPMFPDGSAVPYERTRKLVARLAAPLRATSLRVIIVGHTAATVVQAGDDDPLSLSVNRANAVREVLKQEGLPSSQVLSLVGKGDGEPLFPDAPALAANRRVTITLMRENPPLPPDLQR”, the protein production entry is on record as “failed”.
